Patent publication US20050215629

System: synthetic phosphotyrosine peptide Arg-Arg-Leu-Ile-Glu-Asp-Ala-Glu-Tyr-Ala-Ala-Arg-Gly, wherein the tyrosine is phosphorylated

Substance	PTPase activity (malachite green, absorbance at 660 nm)	in vitro PTPase assay
GST fusion protein of SHP-1	660 nm absorbance approximately 0.6 above background (0.03)	
GST fusion protein of SHP-1 catalytic domain (SHP-1cata)		the two proteins in their dephosphorylation of the phosphotyrosine peptide substrate in vitro
GST fusion protein of protein tyrosine phosphatase 1B (PTP1B)	660 nm absorbance approximately 0.6 above background (0.03)	
GST fusion protein of mitogen-activated protein kinase phosphatase 1 (MKP1)	660 nm absorbance approximately 0.6 above background (0.03)	
GST fusion protein of SHP-2	660 nm absorbance approximately 0.6 above background (0.03)	
